Test: soluble on expression in E. coli; label from the status in PepcDB or PDB records

Sequence | soluble on expression in E. coli
MNSNEDIHEERIEVPRTPHQTQPEKDSDRIALRDEISVPEGDEKAYSDEKVEMATTNASSNFGSNESAKDGESIGAFSNPHEALMQSKLREESQSKTILPSDDLSQQLETEESKVEEALKRITSPPLPPRADCIEESASALKSSLPPVLAGNKNDQAPLDRPQLPPRQVVNAETLHLKAPHGNATPSKSPTSAVGNSSSSTPPTLPPRRIEDPLDLAAQKHFLASTFKRNMLFYKSEDNSIKCDLDKNILNLKEDSKKINNNEIPEEVSSFWLKVIGDYQNILINDIETLHFQLSRGIPAAYRLVVWQLVSYAKSKSFDPIYETYLTEMAPFDVQEFENQLKMMDEVPSEYVKRISNVLKAYLLFDPECEFSTDIAYIINMILDVCEEEANAFGLLVRLMKVYGLRLLFLPSASEIDILCYKFDRLVEEFYPEIHNHMVEKGVRSSMFLPGFFTTLFQKKLPTEIQPRIGDMVFLEGIDSIMRILATLLSNSRDHLLKMGFDDMLELLKSGLLDAYIKQNDGTRGDTLLSNECMDKLLQDSMMKVAITPKTMKKYSSEYEEIHRLDNEKEVQYKSITEKNLHLQKHVRKLENDYTSLNREHVTIANELVKNRLNIESVLNENNGYKLQILDLKKKLDSEKKKQVLGVYVPNDLKKDLEETMKKNTQVMDENLKLQDRISELERLIEEIKTANKNGTLFEYSNSKNNPLGAGWSGFKKVFK | soluble
MVSMNMFEEVEVEAYVYPTEDIEKVKKAMLNLVPGLKFEAFDKGEYMILVGRTRDKRALQRLYELFRGQQILDTARMMLEEGYFGEEIIIKVHKQVAYVGKVNFNEESPLGPITIIIRTKEPQKLMKWLAPRTKDGVPIEAAALEHHHHHH | not soluble
GPDSEMCKDYRVLPRIGYLCPKDLKPVCGDDGQTYNNPCMLCHENLIRQTNTHIRSTGKCEESSTPGTTAASMPPSDE | soluble
MGITTNLISEVSKFYYALKYHAKFMSLGELGCYASHYSLWEKCIELNEAICILEDDITLKEDFKEGLDFLEKHIQELGYIRLMHLLYDASVKSEPLSHKNHEIQERVGIIKAYSEGVGTQGYVITPKIAKVFLKCSRKWVVPVDTIMDATFIHGVKNLVLQPFVIADDEQISTIARKEEPYSPKIALMRELHFKYLKYWQFVLEHHHHHH | soluble
MLIRRKIMQYNDMSKEELLVLKESLNKEYAEAKAKGLALDMSRGKPSAKQLDVSLGLLDTINSSSDLKSLDGTDCRNYGVLDGIPEAKKLMADMMGTTPDHVIVYGNASLNIMYDQISRAYTHGILGNTPWCKLDKVKFLCPVPGYDRHFAITERFGIEMINIPMSESGPDMGMVEEYVSKDASVKGIWCVPKYSNPQGYTYSEETVKRMAALKPAAEDFRIFWDNAYVIHDLYDDNKDEIADIISECEKAGNPDMVFEFASTSKVSFPGSGIAALATSANNIADIKKQLTIQTIGHDKLNQLRHVRFFKDINGLKEHMRKHAEFIRPKFEAVESVLEEELSGLGIGSWTEPKGGYFISFDAMDGCAKAIVAKCKEAGVKLTGAGATFPYGKDPKDSNIRIAPSFPTPEEMKQAADLFVLCVKLVSVEKLLENK | not soluble
GPGSMEYNARYQVSPRDQFLRKVVVVPYGVLGMQMTLQGGLVRAGSEPDESTFIVDPANLRHIFTTAVGATGASGAIYNMLGLRGPFPDEVVQAISRVCDTKFYKYGERANVIHVVDPDFREGAWSEREAAVELSRAYRNVFHEFVRGDGDVLRVPPLSSGVLSGSLYNQLPIITQSAVAMAFEQLHTFDREYLLRRDKQVELCVFMNREWDMYQNVFKNCTQPSKL | soluble
MSLTNVVAYIRVSTKSQGDSGLGLEAQRDYIQRAAQANDWNVVGEFVDVVSGKLALEDRPEGAKALTMCKQHNAQLLVAKLDRLSRSVLHIAQLMEQVDFKVATMPQADKFQLHLFAALAQQEREFIATRTKEALASLQRRADAGDAVAQQKVANRAEAQAKGRAVADITAANNIRMSKINTYQTNIEPHLKSCLHDKISEGHHHHHH | soluble
MKLTGFLKQNVRVRFAPSPTGHLHIGGLRTAFFNYLFAKKYGGDFILRIEDTDRTRFVDDAQDQIYSSLNFYNLLPDEGPREGGKFGPYEQSKRLEIYRNAAYRLIDSGHAYRCFCSENRLDLLRKTAEKRGEIPKYDRKCANLSSRDAVKMEQNGEKFVIRFKLDKQNVQFHDEVFGSVNQFIDESDPVLLKSDGFPTYHLANVIDDRKMEISHVIRGMEWLSSTGKHTILYKAFNWTPPKFVHLSLIMRSATKKLSKRDKDAFVSYYSEQLGALPEAVLNLMIRNGAGIRNFDAEHFYSLDEMIEQFDLSLLGRRNLLLDSDVLQKYSRMAFQKSDFKELYPRIIDILNKKSNYSTSREDIQKIVTFLKAKEENFGFLSSLSTEFSWFFTRPQSSQLLKESHPNVDLRNILNSLLEIEVFNSESLEYLAKNHQLNLAKAMGIVRISLIGSKKGPPISELVEFFGMTECHRRIRIMQELL | not soluble
GPGSMASSKVILEDTFTVAAVNEEGTVYSRVSRVRCTGEGGGLIITSDVNTGEFPLHSGDRLTIILTDSIELSEQAGSKHYDQSVYHRSTRLDDCDYAMHGRVYSMEVNESSLDVTVHISCGGLLTQIVGKPQSLKDVHYNSDVYILMKRPGS | soluble
MSLTQVRQTDSGDSLETARPADLLVLLDSLRQREATLNAEVIDLQNTLNALQASGNTDQAALESAQARLAALSILVGAVGATGPGVMITIDDPGPGVAPEVMIDVINELRAAGAEAIQINDAHRSVRVGVDTWVVGVPGSLTVDTKVLSPPYSILAIGDPPTLAAAMNIPGGAQDGVKRVGGRMVVQQADRVDVTALRQPKQHQYAQPVKEGHHHHHH | soluble
MGSDKIHHHHHHMWIRTHYFMAKSIHSYIKEKYKVSLQLDQLQYGSIKPDLLPKYWEGSHYYESCSGTWLAEVAQLLGEQKKRSIRNFSDKLGVILHFTADFFCSAHNLPNLRENMWEHLLYELKLDVAFRHFESFRGIQCLNYDDPYDLLTCCRQDYLSGQPSLERDIHYIYAASLSITDLLVTQALLPVAKPLMLLKDLPESS | not soluble
MNNVLLEVKDLETSLKINNEWLATVENISFELSKGEVLGIVGESGCGKSILSKSIIKLLPEKISKLSNGEVIFDGKRIDTLNEKQLLDIRGNDIAMIFQEPMTALNPVFTIKNQLVESIKSHKKISKKEANKLAKDLLKKVGIARQDEILNSYPHQLSGGMRQRVMIAMAISCSPKLLIADEPTTALDVTIQAQILDLLKELQKETQMAIMMITHDLSVVAEFCDKVLVMYAGQIVEFGGIKEILHNPKHPYTQKLLSTIPKLKEEQKRLETIEGIVPSIQAFHVNKCRFANRCNKKLDICNNQSPKMHVCEDVIVRCHLYKNEYKEI | not soluble
MATSRMVQARVPEEIQNVASQVIQASGLTVSDVVRVLMTRIAQDKAIPSVLFQPNAETIAAFAEVDEGNLKKFHSVDELFDDLYADD | not soluble
MEMRQPAVAGQFYPLRCENLENELKRCFEGLEIREQEVLGAVCPHAGYMYSGKVAAHVYATLPEADTYVIFGPNHTGYGSPVSVSRETWKTPLGNIDVDLELADGFLGSIVDADELGHKYEHSIEVQLPFLQYRFERDFKILPICMGMQDEETAVEVGNLLADLISESGKRAVIIASSDFTHYETAERAKEIDSEVIDSILNFDISGMYDRLYRRNASVCGYGPITAMLTASKKLGGSRATLLKYANSGDVSGDKDAVVGYAAIIVELEHHHHHH | soluble
PPLYVPEQLVVHKETHQAHVMIGSRGYNAYDDKRTALYLLNNILGGPGMNSRLNVSLRERRGLVYTVESNLTSYTDTGAFCIYFGTDPEDVDTCLKLTYKELKRMRDVKMTSSQLMAAKKQLIGQIGVASDNNENNALGMAKTFLHYNKYESSESVFRRIEALTAEGLLEVANEMFAEEYLSTLIYR | not soluble
SSNAKWDQWSSDWQTWNAKWDQWSNDWNAWRSDWQAWKDDWARWNQRWDNWAT | soluble
MGSDKIHHHHHHMTARHSDCVHCLMRGQSIFAGLSREEVCELGMDVQDIHVPAGTTIYHEGDPAQYAYTLRQGGIKLVKSLPNGHAQIVRLLHHGDLLGFEGLRTDRHRHSAITLTGTDLCRLELRALDALSQRLPAVREAIFARWQQALQEAEDRIVELGAKKADARLATFLCQWVGAYPQQRAAPFPLTRQDLGEFLGLSTEHVSRIMADLKRHRLLHEHKGQIEIPDPQNLFLYASSDGTRA | not soluble
DNDSAPKEPTGPVTLIFTDIESSTALWAAHPDLMPDAVATHHRLIRSLITRYECYEVKTVGDSFMIASKSPFAAVQLAQELQLCFLRLDWETNAVDESYREFEEQRAEGECEYTPPTASLDPEVYSRLWNGLRVRVGIHTGLCDIRYDEVTKGYDYYGRTSNMAARTESVANGGQVLMTHAAYMSLSGEDRNQLDVTTLGATVLRGVPEPVRMYQLNAVPGRNFAALRLDR | soluble
MGSDKIHHHHHHMEFTDLQIFIHLSDTKNFTKTATQNHMSPSTLSRQIQRLEDELGKTLFIRDNRQVKLTEYGEKFLQFAKTEWQNWQQFKQQLKDESDELCGEIKLFCSVTASYSHLPHVLKEFRQRYPKVEIQLTTGDPALALELIQAQQVDLALAGKPNNLPSSVVFHKIDDISLSLIAPRVACLATQLLQEKPIDWQQMPFIFPVEGHARQRIEQWLREKQIKHPKIYATVAGHEGIVPMVGLGFGLAMLPDAVIDSSPMNNQISRLNLDKPIEPFELGICTQKRNLEQPLVRAFWAMLE | not soluble
MNMTDDLGGNILLLSGHPGSGKSTIAEALANLPGVPKVHFHSDDLWGYIKHGRIDPWLPQSHQQNRMIMQIAADVAGRYAKEGYFVILDGVVRPDWLPAFTALARPLHYIVLRTTAAEAIERCLDRGGDSLSDPLVVADLHSQFADLGAFEHHVLPVSGKDTDQALQSAINALQSGRFRIDASLEHHHHHH | soluble
MPAFVDLEELLATRLLVQGNSGSGKSHLLRRLLEQSSSWVQHCVIDPEGDFVTLADKFGHVIVEAQRSEQELMRIAYRIRQHRVSVVLNLEGLDTEQQMRAVGTFLGALFDVERDYWYPMLVVVDEAQLFAPAVAGEVSDEARKISLSAMTNLMCRGRKRGLAGVIATQRLAKLAKNVAAEASNFLIGRTFLDIDMVRAADLLGMERRQAEMFRDLERGHFVALGPALSRRSLRIIIGSVETLARSSSPKLMPLPKERVDVKELVFTASQEEILIPFKQSREPVKEKSIHAILEKAVNKKRELLAENSSLFPELSVVDRDLQAECIIREILEDPEAFYRSTAVLYQDFLVRCRIHGLSGDFLNLSQFRRKLAIAQACVDKETAVSENWKRILYISESLEDDVQGVFLNVAQAALGGKPCPSDAFLARLYGTHSLSRARRLLTYFEERGLIVIHTHFSGQRIIAFPDLGVETAPGDPKEPI | not soluble
MSLGARELHAHLKGGAATVCRCWAVTRRDGTVFGFTDHDRDLTFEGRLFRAETGLTSSALQQTTGLSVDNAETVGALSHVSVTEADLLAGRFDGAEVLAWLVNWADVSERLLQFRGTLGEITHSGGRFRAELRGLTEALNQPQGRVYQRSCQAVLGDRACGFDLSAEEFATERAVETVVGRQSFSFEGLHSFPDRWFEQGRLVVMTGEAAGAMGVIKSDRRRGEVRTVELWEALGPQITVGDRVRLEAGCDRMAETCRLKFNNLRNFRGFPHLSGEDWLSAYPAATGTHDGGSLWEEGHHHHHH | soluble
MAHHHHHHMGLMLPKPILSKVVDRAGNSFVNAACASQNGFRNSMEDAHMLVATDDADVAYFGIFDGHSNAECSAYVARELPQRLKKLPESITAEMLEKVCIEVDEAYMKTSTEGGTTGTFCVIRKDLTVTIANVGDSRILVCRGGKLIFATEDHKPYIPGETERIVACGGSVVSNRVDGDLAVSRAFGDASFKVKGTKDYRMQKVIAVPDVSVLQCEPNDFIILACDGVFEGNFSNEDVCQFVWEQQQNCWDDLAVVACRVCDEAIRCGSKDNISCLVVQLAEGASRVKAFGATSFVPGPPFPRNQQPCRAAYAQMAELGHTTTAAALQTRYQLLQAFSKNKLNSQPPVMRTAFEMSDEVDVETEWSFFGKGPAPGNEKNFFEALANTGNSS | soluble
